Molecular target: human wild type c-RET expressed in 3T3 fibroblasts (human) (UniProt P07949)
Assay: cell-based or functional assay

Sequence of human wild type c-RET expressed in 3T3 fibroblasts (human) (P07949 29-1114): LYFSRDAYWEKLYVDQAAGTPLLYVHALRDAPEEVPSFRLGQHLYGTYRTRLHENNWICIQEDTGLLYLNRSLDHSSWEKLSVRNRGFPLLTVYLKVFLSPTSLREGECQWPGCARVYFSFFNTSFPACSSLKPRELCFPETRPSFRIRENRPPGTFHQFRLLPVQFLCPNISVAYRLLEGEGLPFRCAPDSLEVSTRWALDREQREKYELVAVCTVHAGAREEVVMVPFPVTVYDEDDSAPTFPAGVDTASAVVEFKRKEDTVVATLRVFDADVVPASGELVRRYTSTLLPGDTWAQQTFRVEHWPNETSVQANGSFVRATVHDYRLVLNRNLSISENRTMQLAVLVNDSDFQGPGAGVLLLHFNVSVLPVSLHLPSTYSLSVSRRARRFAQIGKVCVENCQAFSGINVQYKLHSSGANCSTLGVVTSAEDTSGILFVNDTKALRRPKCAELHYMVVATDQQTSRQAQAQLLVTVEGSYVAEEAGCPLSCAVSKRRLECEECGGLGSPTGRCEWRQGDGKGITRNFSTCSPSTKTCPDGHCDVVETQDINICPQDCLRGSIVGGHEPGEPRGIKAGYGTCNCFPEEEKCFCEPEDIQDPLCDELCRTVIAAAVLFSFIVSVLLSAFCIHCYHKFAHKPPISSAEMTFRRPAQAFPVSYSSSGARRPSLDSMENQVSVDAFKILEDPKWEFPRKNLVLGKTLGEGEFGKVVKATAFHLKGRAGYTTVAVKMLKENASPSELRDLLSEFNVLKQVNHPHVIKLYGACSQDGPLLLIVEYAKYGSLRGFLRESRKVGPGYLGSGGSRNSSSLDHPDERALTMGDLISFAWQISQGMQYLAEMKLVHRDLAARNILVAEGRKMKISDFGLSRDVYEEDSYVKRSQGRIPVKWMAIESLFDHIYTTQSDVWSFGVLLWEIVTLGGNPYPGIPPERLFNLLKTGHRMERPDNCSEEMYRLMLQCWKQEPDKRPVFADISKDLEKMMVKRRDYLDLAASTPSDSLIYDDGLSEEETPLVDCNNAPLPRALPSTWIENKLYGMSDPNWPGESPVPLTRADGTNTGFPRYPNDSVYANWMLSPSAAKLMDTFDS
Sequence of ^125I-GDNF (human GDNF from PeproTech EC Ltd. or rat GDNF from C. F. Ibanez) (ligand) (P39905 78-211): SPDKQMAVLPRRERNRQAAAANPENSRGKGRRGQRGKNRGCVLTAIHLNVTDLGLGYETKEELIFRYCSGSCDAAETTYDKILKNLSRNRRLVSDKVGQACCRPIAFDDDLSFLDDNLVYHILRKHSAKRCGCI

In the case of “^125I-GDNF (human GDNF from PeproTech EC Ltd. or rat GDNF from C. F. Ibanez) (ligand)”, the tyrosine phosphorylation of c-RET in c-ret-3T3 cells, time course at 50 ng/ml GDNF is reported as 5 min and the tyrosine phosphorylation of the 160 kD c-RET isoform in c-ret-3T3 cells, dose-response, 5 min is reported as over 25 ng/mL.

Reference: US20040126819A1
